Measured values reported in publication PMC2615049.

Tests used:
[1] = target: Bovine cationic trypsin (bovine); assay: equilibrium titration with spectrophotometric assay of residual free trypsin
[2] = target: Bovine cationic trypsin (bovine); assay: ITC

Row | Substance | Kd [1] | dH (enthalpy of dissociation, ΔHd, at 25 °C, HEPES buffer) [2]
1 | C14S BPTI variant (natural protein) | 170 pM | 
2 | C14S/C38S BPTI variant (natural protein) |  | 10.6 kcal/mol
